Measurements reported in patent US20050282254.

Key:
substrate with 6/S5 site = biological target: T1, substrate with 6/S5 site
T1 chain: LGRAGASIFSS

substrate with 6/G5 site = biological target: T2, substrate with 6/G5 site
T2 chain: LGRAGAGIFSS

[1] = biological target: recombinant protein of full size thioredoxine domain, protease recognition site and truncated C-terminal region (40 aa residues) of thioredoxin [thioredoxin: P0AA25]
substrate with 6/R5 site = biological target: T3, substrate with 6/R5 site
T3 chain: LGRAGARIFSS

B1: Pro39 (C-terminal cysteine protease domain of Semliki Forest virus non-structural protein nsP2) (protein)
chain: KVIEGPAAPVDAFQNKANVCWAKSLVPVLDTAGIRLTAEEWSTIITAFKEDRAYSPVVALNEICTKYYGVDLDSGLFSAPKVSLYYENNHWDNRPGGRMYGFNAATAARLEARHTFLKGQWHTGKQAVIAERKIQPLSVLDNVIPINRRLPHALVAEYKTVKGSRVEWLVNKVRGYHVLLVSEYNLALPRRRVTWLSPLNVTGADRCYDLSLGLPADAGRFDLVFVNIHTEFRIHHYQQCVDHAMKLQMLGGDALRLLKPGGSLLMRAYGYADKISEAVVSSLSRKFSSARVLRPDCVTSNTEVFLLFSNFDNGKRPSTLHQMNTKLSAVYAGEAMHTAGC
For B1, the “cleavage specificity, mass-spectrometry” value (substrate with 6/S5 site) was “cleavage specificity was preserved for all of these modified recognition sites (demonstrated by mass-spectrometry)”, the “cleavage specificity, mass-spectrometry” value (substrate with 6/G5 site) was “cleavage specificity was preserved for all of these modified recognition sites (demonstrated by mass-spectrometry)” and the “cleavage efficiency, Pro39, SDS-PAGE” value [1] was “non structured Ter substrate is poorly cleaved while Trx substrate is effectively cleaved”. The “cleavage specificity, mass-spectrometry” value (substrate with 6/R5 site) was “cleavage specificity was preserved for all of these modified recognition sites (demonstrated by mass-spectrometry)”.
